Experimental data taken from the supplement of paper PMC5998384.

Key:
HeLa Kyoto [1] = assay: solubility in G1/S (NP-40 vs SDS abundance) (log2 ratio); higher = more soluble; details: cell cycle stage: G1/S
HeLa Kyoto [2] = assay: solubility change mitosis vs G1/S (difference of NP-40 vs SDS log2 ratios) (log2 ratio difference); higher = more soluble in mitosis
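Throughout, for solubility change mitosis vs G1/S (difference of NP-40 vs SDS log2 ratios): synchronized HeLa Kyoto cells (double thymidine block for G1/S, nocodazole release for mitosis), protein amounts in NP-40 versus SDS lysates quantified by mass spectrometry, three biological replicates.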
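Throughout, for solubility in G1/S (NP-40 vs SDS abundance): HeLa Kyoto cells arrested at G1/S by double thymidine block, proteins quantified by TMT10plex mass spectrometry in mild NP-40 versus SDS extracts, three biological replicates.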

Row | Sequence | solubility in G1/S (log2) (HeLa Kyoto [1]) | solubility change mitosis (log2) (HeLa Kyoto [2])
1 | MQPGSSRCEEETPSLLWGLDPVFLAFAKLYIRDILDMKESRQVPGVFLYNGHPIKQVDVLGTVIGVRERDAFYSYGVDDSTGVINCICWKKLNTESVSAAPSAARELSLTSQLKKLQETIEQKTKIEIGDTIRVRGSIRTYREEREIHATTYYKVDDPVWNIQIARMLELPTIYRKVYDQPFHSSALEKEEALSNPGALDLPSLTSLLSEKAKEFLMENRVQSFYQQELEMVESLLSLANQPVIHSASSDQVNFKKDTTSKAIHSIFKNAIQLLQEKGLVFQKDDGFDNLYYVTREDKDLHRKIHRIIQQDCQKPNHMEKGCHFLHILACARLSIRPGLSEAVLQQVLELLEDQSDIVSTMEHYYTAF [OBFC1] | 0.0155 | -0.0863
2 | MQPPPRKVKVTQELKNIQVEQMTKLQAKHQAECDLLEDMRTFSQKKAAIEREYAQGMQKLASQYLKRDWPGVKADDRNDYRSMYPVWKSFLEGTMQVAQSRMNICENYKNFISEPARTVRSLKEQQLKRCVDQLTKIQTELQETVKDLAKGKKKYFETEQMAHAVREKADIEAKSKLSLFQSRISLQKASVKLKARRSECNSKATHARNDYLLTLAAANAHQDRYYQTDLVNIMKALDGNVYDHLKDYLIAFSRTELETCQAVQNTFQFLLENSSKVVRDYNLQLFLQENAVFHKPQPFQFQPCDSDTSRQLESETGTTEEHSLNKEARKWATRVAREHKNIVHQQRVLNDLECHGAAVSEQSRAELEQKIDEARENIRKAEIIKLKAEARLDLLKQIGVSVDTWLKSAMNQVMEELENERWARPPAVTSNGTLHSLNADTEREEGEEFEDNMDVFDDSSSSPSGTLRNYPLTCKVVYSYKASQPDELTIEEHEVLEVIEDGDMEDWVKARNKVGQVGYVPEKYLQFPTSNSLLSMLQSLAALDSRSHTSSNSTEAELVSGSLNGDASVCFVKALYDYEGQTDDELSFPEGAIIRILNKENQDDDGFWEGEFNGRIGVFPSVLVEELSASENGDTPWMREIQISPSPKPHASLPPLPLYDQPPSSPYPSPDKRSSLYFPRSPSANEKSLHAESPGFSQASRHTPETSYGKLRPVRAAPPPPTQNHRRPAEKIEDVEITLV [FCHSD2] | 0.194 | -0.00785
3 | MQQESERCRVRARRPDMALYVPKARRGAVLLKTGDEEESCGSPNSVVKEKQKESSLSQKEVFKDKPEARRLNINPDRKEHNCREEKKSSTKLRMDTCLQKTNRVCSKRGTTESKEVLSQGQQQGAPNAGVITNAPLQRHFKPKKVECLEVETTDVTGHERILLSQACLEISEAQVPSKPFQNVEFCDFSRHEPDGEAFEDKDLEGRIETDTKVLEILYEFPRVFSSVMKPENMIVPIKLSSDSEIVQQSMQTSDGILNPSSGGITTTSVPGSPDGVFDQTCVDFEVESVGGIANSTGFILDQKDTDSIPATMGHISLSESTNDTVSPVMIRECEKNDSTADELHVKHEPPDTAVLAHETHRDSGFKNVGDITNKACMMDTTGMSCSDHVTVDSPYVVAVRIADETSINTRSFSKFVGMSADATPLHVARSGNDTEDFSNPSACSDIYGESISSHFTESTGKLIESLSDCASSLPIKKIAGSNYNTFLDSELSMLNGTKVLSDSAVGIDLGSTGDTTEALHELRTAEEFKTEEQDDSGSIEFGVSFPDRESSSMETSIEPKATETSHTEGITAIEESWESMFNDDGDCLDPRLLQEGILMHIKPENHCSKLSGNTKSRESIQEPRSDYYNHEVPDIDLSDCEFPHVIEIYDFPQEFHTEDLLRVFCSYQKKGFDIKWVDDTHALGVFSSPITARDALGIKHTMVKIRPLSQATRAAKAKARAYAEFLQPAKERPETSAALARRLVISALGVRSKQSKTEREAELKKLQEARERKRLEAKQREDIWEGRDQSTV [R3HCC1L] | -0.118 | 0.112
4 | MQREEKQLEASLDALLSQVADLKNSLGSFICKLENEYGRLTWPSVLDSFALLSGQLNTLNKVLKHEKTPLFRNQVIIPLVLSPDRDEDLMRQTEGRVPVFSHEVVPDHLRTKPDPEVEEQEKQLTTDAARIGADAAQKQIQSLNKMCSNLLEKISKEERESESGGLRPNKQTFNPTDTNALVAAVAFGKGLSNWRPSGSSGPGQAGQPGAGTILAGTSGLQQVQMAGAPSQQQPMLSGVQMAQAGQPGKMPSGIKTNIKSASMHPYQR [MED8] | 0.142 | 0.105
5 | MQSESGIVPDFEVGEEFHEEPKTYYELKSQPLKSSSSAEHPGASKPPISSSSMTSRILLRQQLMREQMQEQERREQQQKLQAAQFMQQRVPVSQTPAINVSVPTTLPSATQVPMEVLKVQTHLENPTKYHIQQAQRQQVKQYLSTTLANKHANQVLSLPCPNQPGDHVMPPVPGSSAPNSPMAMLTLNSNCEKEGFYKFEEQNRAESECPGMNTHSRASCMQMDDVIDDIISLESSYNEEILGLMDPALQMANTLPVSGNLIDLYGNQGLPPPGLTISNSCPANLPNIKRELTACIFPTESEARALAKERQKKDNHNLIERRRRFNINDRIKELGTLIPKSNDPDMRWNKGTILKASVDYIRKLQREQQRAKELENRQKKLEHANRHLLLRIQELEMQARAHGLSLIPSTGLCSPDLVNRIIKQEPVLENCSQDLLQHHADLTCTTTLDLTDGTITFNNNLGTGTEANQAYSVPTKMGSKLEDILMDDTLSPVGVTDPLLSSVSPGASKTSSRRSSMSMEETEHTC [MITF] | 0.326 | 0.021
6 | MRAPIPEPKPGDLIEIFRPFYRHWAIYVGDGYVVHLAPPSEVAGAGAASVMSALTDKAIVKKELLYDVAGSDKYQVNNKHDDKYSPLPCSKIIQRAEELVGQEVLYKLTSENCEHFVNELRYGVARSDQVRDVIIAASVAGMGLAAMSLIGVMFSRNKRQKQ [PLA2G16] | 0.0787 | -0.137
7 | MRDRLPDLTACRKNDDGDTVVVVEKDHFMDDFFHQVEEIRNSIDKITQYVEEVKKNHSIILSAPNPEGKIKEELEDLNKEIKKTANKIRAKLKAIEQSFDQDESGNRTSVDLRIRRTQHSVLSRKFVEAMAEYNEAQTLFRERSKGRIQRQLEITGRTTTDDELEEMLESGKPSIFTSDIISDSQITRQALNEIESRHKDIMKLETSIRELHEMFMDMAMFVETQGEMINNIERNVMNATDYVEHAKEETKKAIKYQSKARRKKWIIIAVSVVLVAIIALIIGLSVGK [STX2] | 0.137 | 0.0333
8 | MRDSTGAGNSLVHKRSPLRRNQKTPTSLTKLSLQDGHKAKKPACKFEEGQDVLARWSDGLFYLGTIKKINILKQSCFIIFEDSSKSWVLWKDIQTGATGSGEMVCTICQEEYSEAPNEMVICDKCGQGYHQLCHTPHIDSSVIDSDEKWLCRQCVFATTTKRGGALKKGPNAKALQVMKQTLPYSVADLEWDAGHKTNVQQCYCYCGGPGDWYLKMLQCCKCKQWFHEACVQCLQKPMLFGDRFYTFICSVCSSGPEYLKRLPLQWVDIAHLCLYNLSVIHKKKYFDSELELMTYINENWDRLHPGELADTPKSERYEHVLEALNDYKTMFMSGKEIKKKKHLFGLRIRVPPVPPNVAFKAEKEPEGTSHEFKIKGRKASKPISDSREVSNGIEKKGKKKSVGRPPGPYTRKMIQKTAEPLLDKESISENPTLDLPCSIGRTEGTAHSSNTSDVDFTGASSAKETTSSSISRHYGLSDSRKRTRTGRSWPAAIPHLRRRRGRLPRRALQTQNSEIVKDDEGKEDYQFDELNTEILNNLADQELQLNHLKNSITSYFGAAGRIACGEKYRVLARRVTLDGKVQYLVEWEGATAS [MTF2] | -1.31 | 0.618
9 | MRLRNGTFLTLLLFCLCAFLSLSWYAALSGQKGDVVDVYQREFLALRDRLHAAEQESLKRSKELNLVLDEIKRAVSERQALRDGDGNRTWGRLTEDPRLKPWNGSHRHVLHLPTVFHHLPHLLAKESSLQPAVRVGQGRTGVSVVMGIPSVRREVHSYLTDTLHSLISELSPQEKEDSVIVVLIAETDSQYTSAVTENIKALFPTEIHSGLLEVISPSPHFYPDFSRLRESFGDPKERVRWRTKQNLDYCFLMMYAQSKGIYYVQLEDDIVAKPNYLSTMKNFALQQPSEDWMILEFSQLGFIGKMFKSLDLSLIVEFILMFYRDKPIDWLLDHILWVKVCNPEKDAKHCDRQKANLRIRFKPSLFQHVGTHSSLAGKIQKLKDKDFGKQALRKEHVNPPAEVSTSLKTYQHFTLEKAYLREDFFWAFTPAAGDFIRFRFFQPLRLERFFFRSGNIEHPEDKLFNTSVEVLPFDNPQSDKEALQEGRTATLRYPRSPDGYLQIGSFYKGVAEGEVDPAFGPLEALRLSIQTDSPVWVILSEIFLKKAD [MGAT4B] | 0.0108 | -0.107
10 | MRSFLQQDVNKTKSRLNVLNGLANNMDDLKINTDITGAKEELLDDNNFISDKESGVHKPKDCQTSFQKNNTLTLPEELSKDKSENALSGGQSSLFIHAGAPTVSSENFILPKGAAVNGPVSHSSLTKTSNMNKGSVSLTTGQPVDQPTTESCSTLKVAADLQLSTPQKASQHQVLFLLSDVAHAKNPTHSNKKLPTSASVGCDIQNSVGSNIKSDGTLINQVEVGEDGEDLLVKDDCVNTVTGISSGTDGFRSENDTNWDPQKEFIQFLMTNEETVDKAPPHSKIGLEKKRKRKMDVSKITRYTEDCFSDSNCVPNKSKMQEVDFLEQNEELQAVDSQKYALSKVKPESTDEDLESVDAFQHLIYNPDKCGEESSPVHTSTFLSNTLKKKCEESDSESPATFSTEEPSFYPCTKCNVNFREKKHLHRHMMYHLDGNSHFRHLNVPRPYACRECGRTFRDRNSLLKHMIIHQERRQKLMEEIRELKELQDEGRSARLQCPQCVFGTNCPKTFVQHAKTHEKDKRYYCCEECNFMAVTENELECHRGIAHGAVVKCPMVTSDIAQRKTQKKTFMKDSVVGSSKKSATYICKMCPFTTSAKSVLKKHTEYLHSSSCVDSFGSPLGLDKRKNDILEEPVDSDSTKTLTKQQSTTFPKNSALKQDVKRTFGSTSQSSSFSKIHKRPHRIQKARKSIAQSGVNMCNQNSSPHKNVTIKSSVDQKPKYFHQAAKEKSNAKANSHYLYRHKYENYRMIKKSGESYPVHFKKEEASSLNSLHLFSSSSNSHNNFISDPHKPDAKRPESFKDHRRVAVKRVIKESKKESSVGGEDLDSYPDFLHKMTVVVLQKLNSAEKKDSYETEDESSWDNVELGDYTTQAIEDETYSDINQEHVNLFPLFKSKVEGQEPGENATLSYDQNDGFYFEYYEDTGSNNFLHEIHDPQHLETADASLSKHSSVFHWTDLSLEKKSCPYCPATFETGVGLSNHVRGHLHRAGLSYEARHVVSPEQIATSDKMQHFKRTGTGTPVKRVRKAIEKSETTSEHTCQLCGGWFDTKIGLSNHVRGHLKRLGKTKWDAHKSPICVLNEMMQNEEKYEKILKALNSRRIIPRPFVAQKLASSDDFISQNVIPLEAYRNGLKTEALSVSASEEEGLNFLNEYDETKPELPSGKKNQSLTLIELLKNKRMGEERNSAISPQKIHNQTARKRFVQKCVLPLNEDSPLMYQPQKMDLTMHSALDCKQKKSRSRSGSKKKMLTLPHGADEVYILRCRFCGLVFRGPLSVQEDWIKHLQRHIVNANLPRTGAGMVEVTSLLKKPASITETSFSLLMAEAAS [ZNF644] | -0.00511 | 0.321
11 | MRVDSSADPTMSQEQGPGSSTPPSSPTLLDALLQNLYDFGGTEGETEQKKIIKKRENKKRDVMASAALAAEPSPLPGSLIRGQRKSASSFFKELREERHCAPSGTPTGPEILAAAVPPSSLKNNREQVEVVEFHSNKKRKLTPDHNKNTKQANPSVLERDVDTQEFNLEKARLEVHRFGITGYGKGKERILEQERAIMLGAKPPKKSYVNYKVLQEQIKEKKAAKEEEKRLAQETDIFKKKKRKGQEDRKSKKKSAPSILSNGRIGQVGKFKNGTLILSPVDIKKINSSRVAK [C1ORF131] | -1.24 | 0.969
12 | MSAALLRRGLELLAASEAPRDPPGQAKPRGAPVKRPRKTKAIQAQKLRNSAKGKVPKSALDEYRKRECRDHLRVNLKFLTRTRSTVAESVSQQILRQNRGRKACDRPVAKTKKKKAEGTVFTEEDFQKFQQEYFGS [RPS19BP1] | -0.897 | 0.671
